Test results as given in paper PMC7293203.

Target: the activated zmTrpA variants (Zea mays)
Experiment: activity titration

Sequence of tryptophan synthase β-subunit TrpB1 from Zea mays (P43283 whole entry): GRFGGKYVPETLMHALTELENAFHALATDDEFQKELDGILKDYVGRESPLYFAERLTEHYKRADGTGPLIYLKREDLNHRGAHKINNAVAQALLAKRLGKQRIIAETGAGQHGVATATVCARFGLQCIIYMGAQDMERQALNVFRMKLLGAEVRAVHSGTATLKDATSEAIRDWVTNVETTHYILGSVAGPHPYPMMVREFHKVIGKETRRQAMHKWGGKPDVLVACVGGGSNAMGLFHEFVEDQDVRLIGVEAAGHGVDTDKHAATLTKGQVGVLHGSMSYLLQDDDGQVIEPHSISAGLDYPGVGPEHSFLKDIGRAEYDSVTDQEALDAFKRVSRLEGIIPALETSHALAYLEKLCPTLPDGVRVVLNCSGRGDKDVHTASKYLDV

tryptophan synthase β-subunit TrpB1 from Zea mays (from UniProt P43283 1-389) (enzyme)
Kd: 300 to 700 nM
